The results in this text go back to patent US20220306729A1 (published 2022).

B1: Z054 (BRA138_94) (antibody, V domains shown)
VH: QLQLQESGPRLVKPSETLFLTCTVSGDSISSSSYFWGWIRQPPGKGLEWIGSISYSGSTYYNPSLKSRVTISVDTSKNQFSLKLSSVTAADTVVYYCAKHLYSSSWNIGSSFDSWGPGTLVTVSS
VL: EIVLTQSPATLSLSPGERATLSCRASQSVSIYLAWYQQKPGQAPRLLIYDASSRATGIPARFSGSGSGTDFTLTISSLEPEDFAVYYCQQRSNWPVYTFGQGTKVEIK
B2: Z040 (BRA12_81) (antibody, V domains shown)
VH: EVQLLESGGGLVQPGGSLRLSCAASGFTFSTYAMSWVRQAPGKGLEWVSAISGSGRSTYYADSVKGRFTISRDNSKNTLYLQMNSLRGEDTAVYYCAKSSGGHNWNYVDYYYGMDVWGQGTTVTVSS
VL: DIQLTQSPSFLSASVGDRVTITCRASQGISSYLAWYQQKPGKAPKLLIYAASTLQSGVPSRFSGSGSGTEFTLTISSLQPEDFATYYCQQLNSYPVTFGPGTKVDIK
B3: Z044 (BRA138_46) (antibody, V domains shown)
VH: QVQLVQSGAEVKKPGASVKVSCKASGYTFTSTYIHWVRQAPGQGLEWMGIINPSSSNTNYAQKFQGRVTMTRDTSTSTVYMELSSLRSEDTAVYYCARDFGGYSSSSVSDAFDIWGQGTMVTVSS
VL: QSALTQPASVSGSPGQSITISCTGTSSDVGSFNLVSWYQQHPGKAPKLIIYEVSKRPSGVSNRFSGSKSGNTASLTISGLQAEDEVHYYCCSYAGSSRFVFGTGTKVTVL
B4: Z035 (BRA112_71) (antibody, V domains shown)
VH: EVQLLESGGGLIQPGGSLRLSCAASGFTFSSYAMSWVRQAPGKGLEWVSGISGSGGASDNGASRYYADSVKGRFSISRDNSKNTVYLQMNSLRAEDTAVYYCAKDRLSGGFGELFQKWGQGTLVTVSS
VL: DIQMTQSPSTLAASVGDRVTITCRASQNINSWLAWYQQKPGKAPKFLIYKASTLESGAPSRFSGSGSGTEFTLTISSLQPDDFATYYCQHYYSYPYTFGQGTKVEIK
B5: Z004 (MEX18_89) (antibody, V domains shown)
VH: EVQLLESGGGLVQPGGSLRLTCATSGFTFRDYAMSWVRQAPGKGLEWVSSYSGIDDSTYYADSVKGRFTISRDNSKSTLSLHMNSLRAEDSALYFCAKDRGPRGVGELFDSWGQGTLVTVSS
VL: DIQMTQSPSTLSASVGDRVTITCRASQSISKWLAWYQQKPGKAPKLLIYTTSTLKSGVPSRFSGSGSGTEFTLTISSLQPDDFATYYCQHFYSVPWTFGQGTKVEIK
notes: also called biotin-Z004 (biotinylated form)
B6: Z001 (MEX18_21) (antibody, V domains shown)
VH: EVQLLESGGGLVQPGGSRRLSCATSGFSFDTYAMSWLRQAPGKGLEWVSSFSGLDDSTYYADSVKGRFTISRDNSKNTLYLQMNSLRAEDTAIYYCAKDRGPRGIGELFDFWGQGTLVTVSS
VL: B5 VL with K31R, T50K, G57E, Y92H
B7: Z028 (MEX84_p4-53) (antibody, V domains shown)
VH: EVQLLESGGGLVQPGGSLRLSCAASGFTFSAYAMSWVRQAPGKGLEWVSSINGHSDSTYFADSVKGRFTISRDNSKNTLYLQMNSLRAEDTALYYCAKDRLREGIGELFHSWGQGTLVTVSS
VL: B5 VL with V15I, S30T, K31P, L46F, T50Q, T53I, K55E, F91Y, Y92H, V94Y
B8: Z038 (BRA12_2) (antibody, V domains shown)
VH: EVQLLESGGGLVQPGGSLRLSCEASGFTFSNYAMNWVRQAPGKGLEWVSTLGATDNSGDSTYYVESAKGRFTISRDNSKNTLYLQMNSLRVEDTAVYFCAKDRTGNIGAGTGYFDKWGQGTLVTVSS
VL: DIQMTQSPSTLSASVGDRVTITCRASHRISGWLAWYQQKPGKAPKLLIYQASGLESGVPSRFSGSGYGTEFTLTISSLQADDFATYYCQQYNNYPWTFGQGTKVEIK
notes: also called BRA12_02
B9: Z006 (MEX105_42) (antibody, V domains shown)
VH: EVQLLESGGGLVQPGGSLRLSCAASGFTFKNYAMAWVRQAPGKGLEWVSLLYNSEESTYYADSVKGRFTISRDNSKNTLFLQMNRLRVEDTAVYFCVRDRSNGWSSINLWGRGTLVTVSS
VL: DIQMTQSPSTLSASVGDRVTMTCRASQTISGWLAWYQQKPGKAPKLLIYQASRLESGIPSRFSGSGSGTEFTLTISSLQPDDVATYYCQQYSTFWTFGLGTKVEIK
B10: Z010 (MEX105_88) (antibody, V domains shown)
VH: EVQLLESGGGLVQPGGSLRLSCAASGFTFSNYAMAWVRQAPGKGLEWVSLIYSGDDSTYYADFVKGRFTISRHNSKNTLSLQMNSLRAEDTAIYYCVKDRGTGWSSIVHWGQGTLVTVSS
VL: B9 VL with M21I, G31N, R53S, I58V, V83F, F94Y, L99Q
B11: Z031 (BRA112_46) (antibody, V domains shown)
VH: EVQLLESGGGLVQPGGSLRLSCVASGFTFGSYGMAWVRQAPGKGLEWISSISSIDPSTYYADSVKGRFTVSRDNSENTLYLHMSSLKVEDTAVYFCAKDRLNGGFGELFASWGQGTLVTVSS
VL: DIQMTQSPSTLSASVGDSVTITCRASQSISSWLAWYQQKPGKAPKFLIHKASSLESGIPSRFSGSGSGTEFTLTINNLQPDDFATYYCQHYHSYPWTFGQGTKVEIK
B12: Z032 (BRA112_24) (antibody, V domains shown)
VH: EVQLLESGGRLVQPGGSLTLSCAASGFPFSTYAMSWLRQAPGKGLEWVSGITGDSGSTYYAASVKGRFTISRDNSKNTLYLQMNSLTADDTAVYYCAKDRLHSGLGELFSYWGQGTLVTVSS
VL: B4 VL with A12S, T20N, N28S, S31Q, I48M, S56T, A58V, Y92F, Y96W
B13: Z021 (MEX84_p4-23) (antibody, V domains shown)
VH: QVQLQESGPGLVKPSETLSLTCTVSGGSIDTYYWSWIRQTPGKGLEWIGCFYYSVDNHFNPSLESRVTISVDTSKNQFSLKMTSMTASDTAVYYCARNQPGGRAFDYWGPGTLVTVSS
VL: EIVLTQSPATLSLSPGQRATLSCRASQSVSNYFAWYQQKPGQAPRLLIYDTSKRATGTPARFSGSGSGTDFTLTISSLEPEDFAVYYCQERNNWPLTWTFGLGTKVEIK

Numbering of substitutions follows the chain as printed.

Sequence of ZIKV E protein (African strain MR766) on reporter viral particles (Q32ZE1 291-790 limits assumed): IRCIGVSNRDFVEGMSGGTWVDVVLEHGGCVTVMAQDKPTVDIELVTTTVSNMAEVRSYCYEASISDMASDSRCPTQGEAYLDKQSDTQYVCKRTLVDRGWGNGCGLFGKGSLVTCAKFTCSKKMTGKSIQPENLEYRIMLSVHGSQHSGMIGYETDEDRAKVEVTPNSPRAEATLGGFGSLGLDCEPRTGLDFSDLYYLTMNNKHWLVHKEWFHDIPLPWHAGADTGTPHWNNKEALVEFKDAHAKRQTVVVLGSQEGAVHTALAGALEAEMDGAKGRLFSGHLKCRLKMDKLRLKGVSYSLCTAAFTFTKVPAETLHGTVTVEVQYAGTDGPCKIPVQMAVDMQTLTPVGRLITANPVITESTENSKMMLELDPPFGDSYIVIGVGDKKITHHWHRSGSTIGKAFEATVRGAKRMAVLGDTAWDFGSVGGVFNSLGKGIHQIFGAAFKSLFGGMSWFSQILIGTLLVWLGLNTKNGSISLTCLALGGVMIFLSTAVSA

The target in one test is WNV EDIII, polyhistidine-AviTag (West Nile virus). The test can be described thus: ELISA on EDIII (Table A). In general terms: An ELISA detects its analyte on a solid surface through an enzyme-linked reagent.
In the case of B1, the binding result was “no binding”.
With B2, the binding result is given as “no binding”.
On to B3, for which the binding result is reported as “no binding”.

For a further test, the target named is T1, DENV1 EDIII, polyhistidine-AviTag, made in HEK-293-6E cells (Dengue virus 1 (NC_001477)).
T1 construct: also called EDIII of DENV1
T1 sequence (P17763 577-674, tags left off): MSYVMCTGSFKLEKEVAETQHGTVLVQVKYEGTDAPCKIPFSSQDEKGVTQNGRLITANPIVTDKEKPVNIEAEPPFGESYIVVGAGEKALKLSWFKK
In words: ELISA on EDIII (Table A).
With B1, the binding result was “no binding”.
B2: the binding result is on record as “no binding”.
Consider B3, for which the binding result is reported as “no binding”.

The target of the next test is WNV EDIII, polyhistidine-AviTag (West Nile virus). The test can be described thus: cross-reactivity ELISA on EDIII proteins.
Take B4: the binding result is listed as “no binding (tested: 10 µg/ml)”.
For the molecule B5, the binding result is “no binding (tested: 10 µg/ml)”.
Still for that read-out and setting: next, B6: “no binding (tested: 10 µg/ml)”; B7: “no binding (tested: 10 µg/ml)”.
Same read-out and setting: as for B8, the entry is “no binding (tested: 10 µg/ml)”.
Consider B9, for which the binding result is “no binding (tested: 10 µg/ml)”.
The same measure, in the same setting: as for B10, the entry is “no binding (tested: 10 µg/ml)”; as for B11, “no binding (tested: 10 µg/ml)”.

For a further test, the target named is T2, DENV4 EDIII, polyhistidine-AviTag (Dengue virus 4, UniProt P09866 576-673).
T2 construct: domain: EDIII
In words: cross-reactivity ELISA on EDIII proteins.
On to B4, for which the binding result is “no binding (tested: 10 µg/ml)”.
Regarding B5, the binding result is listed as “no binding (tested: 10 µg/ml)”.
With B6, the binding result is “no binding (tested: 10 µg/ml)”.
Still for that read-out and setting: as for B7, the entry is “no binding (tested: 10 µg/ml)”; as for B8, “no binding (tested: 10 µg/ml)”; as for B9, “no binding (tested: 10 µg/ml)”.
Turning to B10, the binding result was “no binding (tested: 10 µg/ml)”.
Turning to B11, the binding result was “no binding (tested: 10 µg/ml)”.

Another test deals with T3, DENV3 EDIII, polyhistidine-AviTag (Dengue virus 3, UniProt Q6YMS4 575-672).
T3 construct: domain: EDIII
The test can be described thus: cross-reactivity ELISA on EDIII proteins.
With B4, the binding result is reported as “no binding (tested: 10 µg/ml)”.
Consider B5, for which the binding result was “no binding (tested: 10 µg/ml)”.
With B6, the binding result was “no binding (tested: 10 µg/ml)”.
With B7, the binding result is “no binding (tested: 10 µg/ml)”.
As for B8, the binding result is “no binding (tested: 10 µg/ml)”.
Same read-out and setting: as for B9, the entry is “no binding (tested: 10 µg/ml)”.
On to B10, for which the binding result is “no binding (tested: 10 µg/ml)”.
For the molecule B11, the binding result was “no binding (tested: 10 µg/ml)”.

The next test addresses T4, ZIKV envelope domain III ([..]), polyhistidine-AviTag, made in HEK-293-6E cells (Zika virus (KJ776791)).
T4 construct: also called ZEDIII; ZIKV EDIII
In words: ELISA on ZIKV EDIII (Table A).
Broadly, the EC50 is the concentration needed to bring the measured effect to its halfway point. Read a low EC50 as higher potency in that assay. As to B12, the response was half-maximal at 19.5 ng/mL (EC50).

The next test concerns the target ZIKV E protein (African strain MR766) on reporter viral particles (Zika virus, strain MR766, UniProt Q32ZE1 291-790). The test can be described thus: cell-based or functional assay.
As to B13, the “IC50, ZIKV RVPs” value was 0.7 ng/mL.

The next test deals with ZIKV E protein on infectious virus, 2015 Puerto Rican PRVABC59 strain (Zika virus, strain PRVABC59). In words: cell-based or functional assay.
On to B5, for which the “IC50, plaque reduction neutralization test (PRNT)” value worked out at 2.2 ng/mL.
Turning to B13, the “IC50, plaque reduction neutralization assay (PRNT)” value was determined as 4 ng/mL.

The target in the next test is DENV1 E protein (strain PUO-359) on reporter viral particles or infectious virus (Dengue virus 1, strain PUO-359). In words: cell-based or functional assay.
On to B5, for which the “IC50, DENV1 luciferase RVPs” value worked out at 1.6 ng/mL and the “IC50, flow cytometry using authentic DENV1” value amounted to 16.4 ng/mL.
In the case of B13, the “IC50, DENV1 neutralization (flow cytometry)” value turned out to be 10.1 ng/mL.
